Measurements reported in article PMC4303595.
pKd: −log10 of the molar value.

Target: Ccc1(1-109), truncated recombinant fragment of Ccc1 that contains its chromodomain (Cryptococcus neoformans)
Assay: fluorescence polarisation

Row | Substance | pKd
1 | unlabeled Cryptococcus H3K27me3 peptide | 4.55
2 | unlabeled Cryptococcus H3K27me2 peptide | 3.92
